This assay deals with T1, His-tagged recombinant human CD163 (R&D Systems, No. 1607-CD-050) (human, UniProt Q86VB7 42-1050, limits assumed).
T1 construct: Bought protein; also called huCD163; not shown: His tag
Kind of assay: ELISA on plate-coated recombinant human CD163 (5 ug/mL), anti-human IgG F(ab')2 HRP. The protocol:
AB101 binding to His-tagged recombinant human CD163 (R&D Systems, No. 1607-CD-050) and recombinant murine CD163 (R&D Systems, No. 7435-CD-050) proteins was determined using ELISA. Recombinant proteins were diluted in PBS to 5 μg/mL and added to 384-well High binding ELISA plates (Greiner Bio-One, No. 781061) at 25 μL per well and incubated at 4° C. overnight. The plates were washed three times with PBS, using the BioTek ELx405 Select microplate washer (wash program ELISA_384_PBS_3×_wash) and then blocked with 90 μL/well of blocking buffer (2% nonfat, dry milk/PBS+0.05% Tween 20) for 1 hr at RT.
After blocking, 25 μL per well of primary antibodies were added to the plates and incubated for 1 hr at room temp. The test antibody was AB101; the control anti-huCD163 antibody was a commercially available antibody in murine IgG1 framework (R&D Systems, #MAB1607); the isotype controls were a proprietary mAb, in human IgG1, human FcNull, and murine IgG1 frameworks, with known specificity. After primary antibody binding, plates were washed three times with PBS using the EL405x (wash program ELISA_384_PBS_3×_wash). […] After development, the reaction was stopped by adding 25 μL per well of 0.3 M HCl and plates were read using the SpectraMax M5e instrument at 450 nm.
Background: In an ELISA, binding on a coated surface is turned into a signal by an enzyme label.

Consider one molecule from US20220289861A1 (ONCORESPONSE, published 2022).

T1 sequence (Q86VB7 42-1050 limits assumed): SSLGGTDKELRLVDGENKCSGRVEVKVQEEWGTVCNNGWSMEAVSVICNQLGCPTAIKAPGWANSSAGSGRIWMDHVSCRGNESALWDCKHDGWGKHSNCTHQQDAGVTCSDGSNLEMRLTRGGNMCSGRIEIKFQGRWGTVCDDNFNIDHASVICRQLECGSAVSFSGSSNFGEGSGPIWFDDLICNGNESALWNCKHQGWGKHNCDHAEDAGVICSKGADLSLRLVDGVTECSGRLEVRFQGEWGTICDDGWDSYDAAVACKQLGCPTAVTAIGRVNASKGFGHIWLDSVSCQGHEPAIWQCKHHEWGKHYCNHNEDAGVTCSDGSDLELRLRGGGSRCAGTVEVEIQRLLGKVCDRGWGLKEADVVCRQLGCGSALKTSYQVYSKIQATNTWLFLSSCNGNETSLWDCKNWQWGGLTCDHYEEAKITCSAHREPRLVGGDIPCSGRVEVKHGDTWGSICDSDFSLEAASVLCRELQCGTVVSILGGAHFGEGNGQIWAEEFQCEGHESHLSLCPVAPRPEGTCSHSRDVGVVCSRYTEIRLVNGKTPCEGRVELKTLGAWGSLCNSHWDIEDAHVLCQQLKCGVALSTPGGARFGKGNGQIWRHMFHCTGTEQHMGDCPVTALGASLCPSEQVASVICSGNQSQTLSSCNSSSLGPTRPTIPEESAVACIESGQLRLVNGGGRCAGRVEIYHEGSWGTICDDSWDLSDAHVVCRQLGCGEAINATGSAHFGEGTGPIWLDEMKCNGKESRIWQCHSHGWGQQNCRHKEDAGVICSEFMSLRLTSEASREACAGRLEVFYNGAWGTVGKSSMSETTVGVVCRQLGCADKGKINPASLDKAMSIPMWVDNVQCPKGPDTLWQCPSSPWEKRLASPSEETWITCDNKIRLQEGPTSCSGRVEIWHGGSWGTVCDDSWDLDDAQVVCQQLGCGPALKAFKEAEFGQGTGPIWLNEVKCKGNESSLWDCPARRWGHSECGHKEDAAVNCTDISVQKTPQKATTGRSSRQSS

B1: AB102 (antibody, human IgG1, kappa)
heavy: EVQLVESGGGVVQPGRSLRLSCAASGFTFSSYAMHWVRQAPGKGLEWVAVISYDGSNKYYADSVKGRFTISRDNSKNTLYLQMNSLRAEDTAVYYCARENVRPYYDFWSGYYSEYYYYGMDVWGQGTTVTVSSASTKGPSVFPLAPSSKSTSGGTAALGCLVKDYFPEPVTVSWNSGALTSGVHTFPAVLQSSGLYSLSSVVTVPSSSLGTQTYICNVNHKPSNTKVDKRVEPKSCDKTHTCPPCPAPEFEGGPSVFLFPPKPKDTLMISRTPEVTCVVVDVSHEDPEVKFNWYVDGVEVHNAKTKPREEQYNSTYRVVSVLTVLHQDWLNGKEYKCKVSNKALPASIEKTISKAKGQPREPQVYTLPPSREEMTKNQVSLTCLVKGFYPSDIAVEWESNGQPENNYKTTPPVLDSDGSFFLYSKLTVDKSRWQQGNVFSCSVMHEALHNHYTQKSLSLSPGK
light: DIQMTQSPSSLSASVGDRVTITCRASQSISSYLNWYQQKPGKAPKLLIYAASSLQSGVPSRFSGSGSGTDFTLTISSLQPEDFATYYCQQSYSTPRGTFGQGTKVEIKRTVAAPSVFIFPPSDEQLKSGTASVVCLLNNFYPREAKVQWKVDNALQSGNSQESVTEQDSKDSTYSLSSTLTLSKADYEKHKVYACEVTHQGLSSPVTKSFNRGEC
notes: Biotinylated for the PFA immunoprecipitation and AF647-conjugated for flow cytometry; also called AB101 FcNull antibody; AB101 in FcNull framework
Turning to B1, the “EC50 (read off the curve)” value was roughly 1 nM.

The EC50 (read off the curve) is the concentration that produces a half-maximal response.
